Consider 36 sequences from the supplement of paper PMC12764529.

Data set [1] in a line: folding stability dG unfold from trypsin proteolysis; higher = more stable. Put shortly: (§1)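 Designed mini-proteins (under 80 residues, no cysteine) in a PA-tagged cDNA display construct were digested with trypsin and chymotrypsin. Each protease was used at 11 concentrations (threefold dilutions) plus a no-protease condition, followed by sequencing. K50 was inferred by Bayesian fitting of sequencing counts, and unfolding free energy was derived against a sequence-predicted unfolded-state K50 and a shared folded-state K50, per protease or combined. Only designs with AlphaFold2 dimer inter-PAE above 15 were kept.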

The nature of data set [2]: folding stability dG unfold from chymotrypsin proteolysis; higher = more stable. The procedure, abridged:
as §1

The nature of data set [3]: folding stability dG unfold (combined trypsin and chymotrypsin); higher = more stable. The procedure, abridged:
as §1

± gives the half width of the 95% confidence interval.

Consider “SAGGSAGGSPYLVTVTLPDGSTLTHTIPVPPDVPLSEEEIRERIRREYPGPPLGPITIERPTESAGGSAGGS [r12_262_JUSTAS]”, for which the “folding stability dG unfold” value was determined as 0.885 ± 0.015 kcal/mol in data set [1], 1.62 ± 0.047 kcal/mol in data set [2] and 1.35 ± 0.09 kcal/mol in data set [3].
For the sequence “SAGGSAGGSRLDATRALLDKLPPGSVTVTVYVNGKPVTFRFGSREEIEEAIEANPDVEVEIEPASAGGSAGG [r6_421_TrMRF]”, the “folding stability dG unfold” value in data set [1] stood at 0.93 ± 0.13 kcal/mol; in data set [2] it was 1.74 ± 0.16 kcal/mol; in data set [3], 1.38 ± 0.098 kcal/mol.
On the same counts, the results for “SAGGSAGGSSAVVPLPDVVLVVLTFPDGGPPVLALLFPPTGRVVFVHPDSVTVAPFAPGGSLLSAGGSAGGS [r12_536_TrMRF]” are 1.1 ± 0.036 kcal/mol, 1.74 ± 0.062 kcal/mol and 1.51 ± 0.07 kcal/mol.
On the same counts, the results for “SAGGSAGGSSFSVEVIENPDSDVILRKIHFDNFTVIPLFDPSTGKIVSVVVQFPDGSWYTFPLSAGGSAGGS [r12_563_TrMRF]” are 2.18 ± 0.1 kcal/mol, 2.78 ± 0.053 kcal/mol and 2.51 ± 0.11 kcal/mol.
The like results for “SAGGSAGGSSGKYTITVTRKNPDGTPLGVFPIEVEGESEEEAKALAEELKNQPDVVEVKVTYVDSAGGSAGG [r6_475_JUSTAS]” were, in that order, 1.37 ± 0.027 kcal/mol, 1.02 ± 0.054 kcal/mol and 1.22 ± 0.048 kcal/mol.
For the sequence “SAGGSAGGSSGTVTLRLRFRVVDLDPATGEASEHEFELTLTVPIELPAAAPPATPTYGLTLPGSAGGSAGGS [r12_140_TrMRF]”, the results for the “folding stability dG unfold” value in data set [1], in data set [2] and in data set [3] were 0.895 ± 0.12 kcal/mol, 2.79 ± 0.074 kcal/mol and 2.39 ± 0.16 kcal/mol, respectively.
The like results for “SAGGSAGGSSKTFKDPDGWTITVEPLDGGVKVEIYWPDGQRQEHLIPPGEPIKIDPNGWYIEISAGGSAGGS [r12_281_TrROS]” were, in that order, 0.5 ± 0.069 kcal/mol, 2.11 ± 0.061 kcal/mol and 1.69 ± 0.19 kcal/mol.
On the same counts, the results for “SAGGSAGGSSMPIYTVTVTYSDGTVRTYELTPEEIEAFAAEVPDAEVTELPPGKVEVTVKIPASAGGSAGGS [r20_231_JUSTAS]” are 2.01 ± 0.096 kcal/mol, 2.49 ± 0.027 kcal/mol and 2.33 ± 0.07 kcal/mol.
The like results for “SAGGSAGGSSMTITVTDLVTGEPGEIPEELKAELAAEAEESGSAVTFEITTPDGKKYRAEITPSAGGSAGGS [r12_41_JUSTAS]” were, in that order, 0.928 ± 0.029 kcal/mol, 1.13 ± 0.088 kcal/mol and 1.1 ± 0.1 kcal/mol.
Turning to “SAGGSAGGSSPSSVSTYDIEFPDGTKIKITVTLGPGTPVVEITTLTESPPVKRVANTEEVKFESAGGSAGGS [r20_100_JUSTAS]”, the “folding stability dG unfold” value in data set [1] is -0.0821 ± 0.059 kcal/mol; in data set [2] it was 0.995 ± 0.041 kcal/mol; in data set [3], 0.696 ± 0.19 kcal/mol.
On the same counts, the results for “SAGGSAGGSSPVKQVTEVKDPHSSLPLLRTTETLVLPNGEVVTKVKFIDTKTGKSTEEIFTIPSAGGSAGGS [r20_229_JUSTAS]” are 0.724 ± 0.046 kcal/mol, 1.02 ± 0.13 kcal/mol and 0.833 ± 0.089 kcal/mol.
On the same counts, the results for “SAGGSAGGSSPVPVKVSANSVEPGESSSSNINIPKEALEKDSLTPEELKKILQKQGPNVTITGSAGGSAGGS [r20_221_JUSTAS]” are -0.423 ± 0.086 kcal/mol, 0.124 ± 0.049 kcal/mol and -0.0407 ± 0.23 kcal/mol.
On the same counts, the results for “SAGGSAGGSSQEREFTLPDPDGKDIKITMHQNPDGRPRAEIENKDGEPVKEFDSPDDIEDLLKSAGGSAGGS [r20_202_TrROS]” are -0.273 ± 0.2 kcal/mol, 0.168 ± 0.06 kcal/mol and -0.0562 ± 0.22 kcal/mol.
For “SAGGSAGGSSQRIKIEDIEPPPNGQWRVRIKMPNGKEREVTMPPDKLEIELPPNITDVSLWPVSAGGSAGGS [r20_194_TrROS]”, the “folding stability dG unfold” value was determined as 3.88 ± 0.16 kcal/mol in data set [1], 3.91 ± 0.33 kcal/mol in data set [2] and 4.01 ± 0.33 kcal/mol in data set [3].
The like results for “SAGGSAGGSSSSSVVTKPLPEEPLLVVTTTLPPSTPPGTTSTTTIIEPETGKVLETTDINIPSSAGGSAGGS [r12_564_JUSTAS]” were, in that order, 1.92 ± 0.13 kcal/mol, 0.954 ± 0.1 kcal/mol and 1.41 ± 0.11 kcal/mol.
The like results for “SAGGSAGGSSSSTLISVEPSPGIVTVERPLSLDPVPVVERRIMTVSPSSSLSVTETSVFPVSLLSAGGSAGG [r6_970_JUSTAS]” were, in that order, 0.818 ± 0.095 kcal/mol, 0.932 ± 0.24 kcal/mol and 1.02 ± 0.15 kcal/mol.
The like results for “SAGGSAGGSSSVTPVPETTLVTLTPPDGSPPVLGTVFPATGTMLLFYPDSVLLLPLGPGTTLFSAGGSAGGS [r12_536_JUSTAS]” were, in that order, 0.888 ± 0.034 kcal/mol, 0.503 ± 0.08 kcal/mol and 0.82 ± 0.079 kcal/mol.
As to “SAGGSAGGSSVEVTEDPSTGKLTVTVPPDLTSVTIKEKDKTITIPLPPGASITLPSGTVTVALSAGGSAGGS [r20_26_JUSTAS]”, the entries for the “folding stability dG unfold” value in data set [1], in data set [2] and in data set [3] were 1.56 ± 0.059 kcal/mol, -0.168 ± 0.1 kcal/mol and 0.935 ± 0.1 kcal/mol, respectively.
As to “SAGGSAGGSSVEYTFLSKNPEEAKKKFEEKIKEIEEKGEGKIEKAEFTIVSPDNPEYLKLISSSAGGSAGGS [r12_551_JUSTAS]”, the figures for the “folding stability dG unfold” value in data set [1], in data set [2] and in data set [3] were 0.213 ± 0.05 kcal/mol, 0.136 ± 0.26 kcal/mol and 0.259 ± 0.13 kcal/mol, respectively.
With “SAGGSAGGSSVPEGWEVEREKVLEAEIVGEDGPVLRVRLYRVRVRPVDGPPRYFFELDVDDVDSAGGSAGGS [r12_544_TrMRF]”, the “folding stability dG unfold” value worked out at 2.38 ± 0.095 kcal/mol in data set [1], 2.915 ± 0.027 kcal/mol in data set [2] and 2.74 ± 0.11 kcal/mol in data set [3].
On the same counts, the results for “SAGGSAGGSSVSVGVPSSYASVEVTVLKEEPGKGLVTVKVTTTVPGTGEVLTETVTIPRSELLSAGGSAGGS [r12_964_JUSTAS]” are 1.01 ± 0.034 kcal/mol, 0.517 ± 0.043 kcal/mol and 0.828 ± 0.046 kcal/mol.
The like results for “SAGGSAGGSSYLVEVISRKKVKVGGKERYVVPVRIPDNGELVELVVSEDVAKNIKPGDVVVLSSAGGSAGGS [r12_382_TrMRF]” were, in that order, -0.00477 ± 0.058 kcal/mol, -0.00598 ± 0.12 kcal/mol and 0.0239 ± 0.12 kcal/mol.
The like results for “SAGGSAGGSTAKEIADKLGFDNVEIKPTKPVEQRKDPNGKWRRQYVYTIKIRNPDGREWTIPISAGGSAGGS [r12_221_TrROS]” were, in that order, 0.626 ± 0.093 kcal/mol, 0.449 ± 0.24 kcal/mol and 0.528 ± 0.13 kcal/mol.
Consider “SAGGSAGGSTLTVEIQITDADGNTLTAKVTLTFEPAPPPPPPPTVERRTTTVDGKTVTEYRRLSAGGSAGGS [r12_128_TrROS_Hall]”, for which the entries for the “folding stability dG unfold” value in data set [1], in data set [2] and in data set [3] were 0.631 ± 0.18 kcal/mol, 1.04 ± 0.22 kcal/mol and 0.969 ± 0.13 kcal/mol, respectively.
The like results for “SAGGSAGGSTVEEELLEKAAAAHPPGTTLTVDVVIVDPNNPVPIGTRTVTITVNADGSYTVVDSAGGSAGGS [r20_151_JUSTAS]” were, in that order, 2.18 ± 0.07 kcal/mol, 2.65 ± 0.054 kcal/mol and 2.46 ± 0.09 kcal/mol.
The like results for “SAGGSAGGSTVTIEIPGFKTPEEIAKAIAEKTGKKVKEVKVEKDKKNKTYTITVTVDGKEITFSAGGSAGGS [r12_935_TrROS_Hall]” were, in that order, 0.333 ± 0.082 kcal/mol, 1.03 ± 0.087 kcal/mol and 0.805 ± 0.15 kcal/mol.
The like results for “SAGGSAGGSVEDVVKKENVEKAEVKPEPNPPVTLTKITSKNPNSNTTLTGTLVVVDPKNGLLLSAGGSAGGS [r12_133_JUSTAS]” were, in that order, -0.344 ± 0.12 kcal/mol, 0.157 ± 0.21 kcal/mol and 0.0723 ± 0.11 kcal/mol.
Regarding “SAGGSAGGSVIPYFDENAVALLVKGPGDYYRIIFKPNDGYLVLLLPKEVIKSKPIPIGELLKKSAGGSAGGS [r20_90_TrMRF]”, the “folding stability dG unfold” value in data set [1] stood at 0.672 ± 0.11 kcal/mol; in data set [2] it was 1.33 ± 0.38 kcal/mol; in data set [3], 0.948 ± 0.43 kcal/mol.
On the same counts, the results for “SAGGSAGGSVKVYTIEFLGDGKPYLLSIDDNGNFVIYVPNPKNIDAVKKAIPSNYKIVEIKPLSAGGSAGGS [r12_9_TrMRF]” are 0.989 ± 0.036 kcal/mol, 2.01 ± 0.13 kcal/mol and 1.52 ± 0.17 kcal/mol.
On the same counts, the results for “SAGGSAGGSVLPDVLRTLFPDAKVTVKVTEVSETSATVDVEVEVPVPGGSTRRFRLKLEVPLSSAGGSAGGS [r20_78_TrMRF]” are 1.78 ± 0.029 kcal/mol, 2.34 ± 0.044 kcal/mol and 2.14 ± 0.066 kcal/mol.
As for “SAGGSAGGSVVPVKAVFKLPDGDEVEGLALVDNRPDGSLVVLFQLPGTGETVGSATAELLKVEGSAGGSAGG [r6_254_TrMRF]”, the figures for the “folding stability dG unfold” value in data set [1], in data set [2] and in data set [3] were 0.523 ± 0.032 kcal/mol, 0.727 ± 0.1 kcal/mol and 0.638 ± 0.11 kcal/mol, respectively.
Take “SAGGSAGGSVYSAKSPDGYTITISNGGKPITLPVSDPAKAASLTLKTPDGKTATVTIVPASLASAGGSAGGS [r12_730_JUSTAS]”: the “folding stability dG unfold” value in data set [1] was -0.229 ± 0.12 kcal/mol; in data set [2], -0.295 ± 0.23 kcal/mol; in data set [3] it was -0.216 ± 0.17 kcal/mol.
On the same counts, the results for “SAGGSAGGSWEWITAEEALKRAREENPPGKPIEFHFEDPWYFTVRFDGEDPNDVTIEWVPLEKSAGGSAGGS [r12_648_TrROS]” are 1.39 ± 0.087 kcal/mol, 1.47 ± 0.18 kcal/mol and 1.4 ± 0.2 kcal/mol.
For the sequence “SAGGSAGGSWIPLPDGYLIKITEVVPGGIRIKFPDMGNEITIPPGMPIKIKIIPVKDPDGEPISAGGSAGGS [r20_105_TrROS]”, the “folding stability dG unfold” value in data set [1] amounted to 1.03 ± 0.056 kcal/mol; in data set [2], 0.838 ± 0.05 kcal/mol; in data set [3], 0.9 ± 0.14 kcal/mol.
On the same counts, the results for “SAGGSAGGSWMYKKNPDGKLEPLPPIRPVPIKIPVPINGRWIPVPIWMTVADIDYIIKEFLKNSAGGSAGGS [r20_148_TrROS]” are 1.48 ± 0.042 kcal/mol, 0.785 ± 0.15 kcal/mol and 1.41 ± 0.15 kcal/mol.
On the same counts, the results for “SAGGSAGGSWRTITYEFKLPKPGQTAEDIAKEIMQLFPGVKDIEIKYYPEEGYIKVDIRFRPNSAGGSAGGS [r20_31_TrROS]” are 3.37 ± 0.2 kcal/mol, 2.88 ± 0.042 kcal/mol and 3.13 ± 0.22 kcal/mol.
